Results as given in article PMC9544252.

Columns and labels:
[1] = target: HIV-1 CAP256 SU Env gp140 produced in HEK293 cells (HIV-1 (subtype C, CAP256 SU)); test: SEC; gel filtration of lectin-purified gp140; normalised, overlaid elution profiles
[2] = target: HIV-1 CAP256 SU Env gp140, "glycan-enhanced" (GE), produced in N. benthamiana ∆XF (HIV-1 (subtype C, CAP256 SU)); test: as above

Substance	stoichiometry N [1]	stoichiometry N [2]
HIV-1 CAP256 SU Env gp140 produced in HEK293 cells (natural protein)	3	
HIV-1 CAP256 SU Env gp140, "glycan-enhanced" (GE), produced in N. benthamiana ∆XF (natural protein)		3
